According to article PMC4565553:
Numbering of substitutions follows the chain as printed. Blank lines part the entries; values can stand above or below the molecule they belong to.

Legend:
Assay in all cases: BLI; label-free in vitro kinetics assay; FLAG-tagged IPS1 CARD (2.5 μg/mL) immobilised on anti-FLAG probes; RLR CARDs at 0.001–100 μM in 1x Kinetics Buffer (ForteBio) with BSA, pH 7.0; 60 min association, 60 min dissociation; Kd = half-maximal steady-state binding, Km = half-maximal initial binding rate, one-site fit, 3 replicates; no ubiquitin
[1] = target: B. floridae IPS1 CARD (Branchiostoma floridae)
[2] = target: mutant human IPS1 CARD (Arg66,67—Glu), FLAG-tagged (human) (UniProt Q7Z434)
[3] = target: human IPS1 CARD (1–92), FLAG-tagged (human) (UniProt Q7Z434)

fold lower Kd than the negative control (human CASP9 CARD) [1]: 5.4 fold
fold lower Km than the negative control (human CASP9 CARD) [1]: 6.1 fold
Molecule: B. floridae RIG-I CARD1+2 (domain or fragment)

fold increase in Kd against wild-type IPS1 CARD [2]: 34.6 fold
fold increase in Km against wild-type IPS1 CARD [2]: 43.8 fold
Kd [3]: 33.1 nM
Km (half-maximal initial binding rate) [3]: 0.0389 µM
fold stronger binding than human caspase9 CARD (negative control) [3]: 70 fold
B1: human RIG-I CARD1 (1–87) (domain or fragment)
chain: MTTEQRRSLQAFQDYIRKTLDPTYILSYMAPWFREEEVQYIQAEKNNKGPMEAATLFLKFLLELQEEGWFRGFLDALDHAGYSGLYE

fold increase in Kd against wild-type RIG-I CARD1 [3]: 10 fold
fold increase in Km against wild-type RIG-I CARD1 [3]: 6.9 fold
B2: mutant human RIG-I CARD1 (Glu66,67—Arg) (domain or fragment)
chain: B1 chain with E66R, E67R

Kd [3]: 813 nM
Km (half-maximal initial binding rate) [3]: 0.55 µM
B3: human MDA5 CARD1 (1–96) (domain or fragment)
chain: MSNGYSTDENFRYLISCFRARVKMYIQVEPVLDYLTFLPAEVKEQIQRTVATSGNMQAVELLLSTLEKGVWHLGWTREFVEALRRTGSPLAARYMN
